Read-outs that look alike come from different tables or passages of the source.
Legend:
Assay in all cases: co-IP
[1] = molecular target: calnexin (canine pancreas microsomes) (dog (endogenous in canine pancreas microsomes)) (UniProt P24643)
[2] = molecular target: calreticulin (canine pancreas microsomes) (dog (endogenous in canine pancreas microsomes)) (UniProt P28490)
[3] = molecular target: calnexin (canine pancreas microsomes) (dog (endogenous in canine pancreas microsomes)) (UniProt P24643); remark: listed apart in the source
[4] = molecular target: calreticulin (canine pancreas microsomes) (dog (endogenous in canine pancreas microsomes)) (UniProt P28490); remark: listed apart in the source

Chain of UniProt P24643 (P24643 21-593): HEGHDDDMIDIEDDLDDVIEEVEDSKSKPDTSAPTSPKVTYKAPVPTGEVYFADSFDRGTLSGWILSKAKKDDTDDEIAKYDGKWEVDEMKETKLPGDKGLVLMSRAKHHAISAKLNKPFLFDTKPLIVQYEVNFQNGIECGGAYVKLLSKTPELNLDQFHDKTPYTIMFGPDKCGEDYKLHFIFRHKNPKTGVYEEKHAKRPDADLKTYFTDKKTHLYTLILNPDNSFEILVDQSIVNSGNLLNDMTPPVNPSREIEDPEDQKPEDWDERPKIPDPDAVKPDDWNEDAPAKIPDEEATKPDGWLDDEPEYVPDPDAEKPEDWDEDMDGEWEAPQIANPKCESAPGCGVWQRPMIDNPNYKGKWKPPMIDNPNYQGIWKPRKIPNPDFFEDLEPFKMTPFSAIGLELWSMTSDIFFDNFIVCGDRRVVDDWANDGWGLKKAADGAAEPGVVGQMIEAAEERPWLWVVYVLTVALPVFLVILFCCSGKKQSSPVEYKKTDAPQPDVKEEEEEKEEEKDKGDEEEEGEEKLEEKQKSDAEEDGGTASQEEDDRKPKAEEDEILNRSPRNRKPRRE

Row | Substance | percent of HA coprecipitated [1] [%] | percent of HA coprecipitated [2] [%] | binding ratio of the IT2 form (IT1 = 1.0, normalised to anti-HA precipitations) [3] | binding ratio of the NT form (IT1 = 1.0, normalised to anti-HA precipitations) [3] | percent of HA in calnexin–HA complexes without calreticulin [3] [%] | percent of HA in ternary complexes with m2 and m3 [3] [%] | binding ratio of the IT2 form (IT1 = 1.0, normalised to anti-HA precipitations) [4] | binding ratio of the NT form (IT1 = 1.0, normalised to anti-HA precipitations) [4] | percent of HA coprecipitated [4] [%] | percent of HA in calreticulin–HA complexes without calnexin [4] [%] | percent of HA in ternary complexes with m2 and m3 [4] [%]
1 | anchor-free, truncated, soluble form of HA (domain or fragment) | 54 | 50 |  |  |  |  |  |  |  |  | 
2 | influenza virus hemagglutinin (HA), wild type, X31 (natural protein) | 82 | 50 | 0.65 | 0.63 | 8 | 40 | 0.57 | 0.16 | 45 | 10 | 40

— publication PMC2141715
